In paper PMC3505976:

T1: hIghmbp2hd (helicase core) (human (Homo sapiens), UniProt P38935 1-652)
T1 sequence: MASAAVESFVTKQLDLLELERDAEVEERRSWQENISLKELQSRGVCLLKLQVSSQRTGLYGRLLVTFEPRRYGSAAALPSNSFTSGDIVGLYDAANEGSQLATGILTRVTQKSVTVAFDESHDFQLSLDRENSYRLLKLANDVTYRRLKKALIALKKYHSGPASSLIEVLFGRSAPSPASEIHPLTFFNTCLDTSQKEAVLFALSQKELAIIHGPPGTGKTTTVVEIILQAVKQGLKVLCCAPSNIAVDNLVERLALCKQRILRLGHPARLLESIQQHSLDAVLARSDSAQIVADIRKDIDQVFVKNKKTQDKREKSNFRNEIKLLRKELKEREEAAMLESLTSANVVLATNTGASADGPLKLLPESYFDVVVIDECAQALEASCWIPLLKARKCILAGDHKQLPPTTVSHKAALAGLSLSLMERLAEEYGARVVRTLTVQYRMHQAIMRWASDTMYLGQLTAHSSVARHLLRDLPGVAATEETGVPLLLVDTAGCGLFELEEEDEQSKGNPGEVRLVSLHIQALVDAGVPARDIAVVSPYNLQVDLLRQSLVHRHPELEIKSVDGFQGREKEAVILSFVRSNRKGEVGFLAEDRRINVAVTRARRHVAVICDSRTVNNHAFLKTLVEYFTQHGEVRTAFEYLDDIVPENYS

T2: mIghmbp2hd-R3H (helicase core + R3H) (mouse, UniProt P40694 1-786)
T2 sequence: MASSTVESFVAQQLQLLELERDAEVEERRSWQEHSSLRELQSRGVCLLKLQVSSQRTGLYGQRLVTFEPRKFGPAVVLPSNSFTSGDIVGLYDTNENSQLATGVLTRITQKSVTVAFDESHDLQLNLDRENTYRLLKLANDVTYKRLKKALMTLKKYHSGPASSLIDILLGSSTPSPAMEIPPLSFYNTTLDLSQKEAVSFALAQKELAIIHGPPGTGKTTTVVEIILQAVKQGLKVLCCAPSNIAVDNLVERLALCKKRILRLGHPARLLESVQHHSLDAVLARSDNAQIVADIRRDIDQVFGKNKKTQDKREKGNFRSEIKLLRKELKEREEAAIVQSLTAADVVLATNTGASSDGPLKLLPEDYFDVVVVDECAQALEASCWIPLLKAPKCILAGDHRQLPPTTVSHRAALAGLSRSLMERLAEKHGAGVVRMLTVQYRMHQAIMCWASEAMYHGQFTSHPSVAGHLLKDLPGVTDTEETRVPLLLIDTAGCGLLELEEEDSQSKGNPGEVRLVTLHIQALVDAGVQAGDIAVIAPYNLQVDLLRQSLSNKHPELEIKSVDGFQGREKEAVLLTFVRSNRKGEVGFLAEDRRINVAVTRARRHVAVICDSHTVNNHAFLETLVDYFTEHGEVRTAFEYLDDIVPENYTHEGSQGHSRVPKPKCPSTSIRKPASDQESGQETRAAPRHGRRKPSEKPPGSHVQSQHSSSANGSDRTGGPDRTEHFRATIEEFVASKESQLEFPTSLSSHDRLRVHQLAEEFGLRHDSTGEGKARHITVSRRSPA


Experiments:
[1] = target: T1, hIghmbp2hd (helicase core); assay: crystal structure
[2] = target: T2, mIghmbp2hd-R3H (helicase core + R3H); assay: fluorescence anisotropy
[3] = target: T1, hIghmbp2hd (helicase core); assay: fluorescence anisotropy

Binder	binding result [1]	Kd [2] [nM]	Kd [3] [nM]
AAAAAAAAAA (ssRNA) [A10 ssRNA]	binds		
UUUUUUUUUUUUUUU (ssRNA) [U15 ssRNA]		107 ± 29	1080 ± 130
